Measured values taken from PMC9177810, “Allosteric interactions prime androgen receptor dimerization and activation”.

How the values were obtained:
AR-AR18Linker (mouse) = AR-AR18Linker (mouse) (UniProt P19091); assay: fluorescence polarization; details: 150 mM NaCl, 40 mM Tris pH 8.0, 1 mM TCEP, 20 uM DHT, 10% glycerol, 0.01% NP40, on ice; FP 100 nM DNA, 0-4 uM protein; EMSA 50 nM DNA, 250 nM protein
AR-AR27Linker (mouse) = AR-AR27Linker (mouse) (UniProt P19091); assay: fluorescence polarization; details: 150 mM NaCl, 40 mM Tris pH 8.0, 1 mM TCEP, 20 uM DHT, 10% glycerol, 0.01% NP40, on ice; FP 100 nM DNA, 0-4 uM protein; EMSA 50 nM DNA, 250 nM protein
Chain of AR-AR27Linker (mouse) (P19091 whole entry, the tested form may be a part): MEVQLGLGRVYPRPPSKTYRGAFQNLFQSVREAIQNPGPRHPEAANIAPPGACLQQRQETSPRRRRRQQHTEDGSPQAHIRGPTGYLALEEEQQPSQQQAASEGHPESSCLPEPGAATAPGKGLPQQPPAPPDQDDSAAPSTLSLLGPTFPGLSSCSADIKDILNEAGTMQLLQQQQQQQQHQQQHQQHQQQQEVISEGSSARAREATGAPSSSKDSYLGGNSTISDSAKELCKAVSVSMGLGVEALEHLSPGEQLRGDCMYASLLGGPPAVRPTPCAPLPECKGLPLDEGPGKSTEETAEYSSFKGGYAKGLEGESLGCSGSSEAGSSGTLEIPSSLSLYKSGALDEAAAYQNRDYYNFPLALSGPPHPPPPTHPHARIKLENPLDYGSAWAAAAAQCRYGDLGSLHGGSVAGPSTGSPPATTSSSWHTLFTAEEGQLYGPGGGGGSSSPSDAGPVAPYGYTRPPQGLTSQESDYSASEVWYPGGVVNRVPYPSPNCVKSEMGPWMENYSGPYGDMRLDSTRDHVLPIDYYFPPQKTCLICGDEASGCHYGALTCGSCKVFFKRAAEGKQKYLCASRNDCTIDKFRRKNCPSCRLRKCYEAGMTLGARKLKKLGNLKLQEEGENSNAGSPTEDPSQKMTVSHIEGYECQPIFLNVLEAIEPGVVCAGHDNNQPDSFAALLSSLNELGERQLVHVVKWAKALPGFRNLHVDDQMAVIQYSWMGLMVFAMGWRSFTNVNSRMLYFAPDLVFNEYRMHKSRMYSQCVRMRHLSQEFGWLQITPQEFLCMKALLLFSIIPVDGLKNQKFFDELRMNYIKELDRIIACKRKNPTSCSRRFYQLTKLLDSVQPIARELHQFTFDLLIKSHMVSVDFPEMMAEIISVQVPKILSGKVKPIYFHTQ

[1] = molecular target: Recombinant mouse AR lacking the N-terminus (mouse); assay: cryo-EM structure; Grafix cross-linked complex of ΔNTD AR, DHT, ARE35 DNA and ERG (fraction 11); three states (Entrenched, Splayed, Divorced) at 11.4, 9.1 and 9.4 Å; LBD and DBD X-ray coordinates docked
AR deltaNTD WT = AR deltaNTD WT (mouse, UniProt P19091 530-899); assay: fluorescence polarization; DHT; 150 mM NaCl, 40 mM Tris pH 8.0, 1 mM TCEP, 20 uM DHT, 10% glycerol, 0.01% NP40, on ice; FP 100 nM DNA, 0-4 uM protein; EMSA 50 nM DNA, 250 nM protein; details: protein: recombinant; tags: Smt3 fusion, removed by Ulp1; chain copies: 2; label: 5' fluorescein (FP); unlabeled (EMSA); blunt
Chain of AR deltaNTD WT (P19091 530-899, stated change not applied): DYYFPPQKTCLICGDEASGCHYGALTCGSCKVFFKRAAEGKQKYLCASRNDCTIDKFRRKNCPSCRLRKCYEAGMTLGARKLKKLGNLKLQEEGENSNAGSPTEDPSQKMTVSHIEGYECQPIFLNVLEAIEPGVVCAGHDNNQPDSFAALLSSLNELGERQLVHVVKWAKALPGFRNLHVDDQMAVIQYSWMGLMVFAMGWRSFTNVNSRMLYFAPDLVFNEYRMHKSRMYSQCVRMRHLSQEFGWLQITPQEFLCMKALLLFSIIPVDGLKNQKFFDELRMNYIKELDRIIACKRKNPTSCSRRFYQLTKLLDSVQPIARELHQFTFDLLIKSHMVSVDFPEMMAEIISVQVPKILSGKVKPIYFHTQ

[2] = molecular target: AR deltaNTD WT;ERG full-length (mouse;human, UniProt P19091;P11308-1 530-899;1-462, |); assay: cryo-EM (9.1-11.4 A); DHT; GraFix cross-linked; AR dimer; EMD-25132, EMD-25133, EMD-25134; 150 mM NaCl, 40 mM Tris pH 8.0, 1 mM TCEP, 20 uM DHT, 10% glycerol, 0.01% NP40, on ice; FP 100 nM DNA, 0-4 uM protein; EMSA 50 nM DNA, 250 nM protein; details: protein: recombinant;recombinant, tags: Smt3 fusion, removed by Ulp1;Smt3 fusion, chain copies: 2;1, label: unlabeled, blunt
Chain of AR deltaNTD WT;ERG full-length (P19091 530-899, stated change not applied, chain 1 of 2): as the sequence (P19091 530-899, stated change not applied) above
Chain of AR deltaNTD WT;ERG full-length (P11308 other isoform, or with tags, fused parts or gaps | | mutant, chain 2 of 2): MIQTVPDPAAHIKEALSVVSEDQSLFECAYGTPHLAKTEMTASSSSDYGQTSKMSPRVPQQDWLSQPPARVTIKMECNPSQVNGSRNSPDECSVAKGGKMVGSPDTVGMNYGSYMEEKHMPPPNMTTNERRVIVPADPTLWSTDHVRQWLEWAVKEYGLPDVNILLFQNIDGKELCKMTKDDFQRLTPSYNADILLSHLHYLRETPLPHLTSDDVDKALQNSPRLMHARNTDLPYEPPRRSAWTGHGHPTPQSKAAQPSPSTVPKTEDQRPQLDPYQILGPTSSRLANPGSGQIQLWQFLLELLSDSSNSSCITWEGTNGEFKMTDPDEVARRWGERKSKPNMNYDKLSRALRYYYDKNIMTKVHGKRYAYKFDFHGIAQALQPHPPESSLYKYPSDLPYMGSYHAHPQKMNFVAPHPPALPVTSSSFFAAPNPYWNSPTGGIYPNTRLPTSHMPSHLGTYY

Chain of AR-AR18Linker (mouse) (P19091 whole entry): as the sequence (P19091 whole entry, the tested form may be a part) above

For “TACCTAGCGTGGCCAGAACATCATGTTCTCCGGTGCGATCCAG (double strand) [ARE/Scr (ARE43)]”, the binding signal (fold tighter than WT AR) (AR-AR18Linker (mouse)) was 5 and the binding signal (fold weaker than WT AR) (AR-AR27Linker (mouse)) was 3.

“Recombinant mouse AR lacking the N-terminus (domain or fragment)” was tested, and the stoichiometry N [1] was 2.

B1: ARE/Scr (ARE43) (dsDNA)
DNA 1: TACCTAGCGTGGCCAGAACATCATGTTCTCCGGTGCGATCCAG
DNA 2: CTGGATCGCACCGGAGAACATGATGTTCTGGCCACGCTAGGTA
B1: binds (AR deltaNTD WT).

B2: ARE35 (dsDNA)
DNA 1: TAGCGTGGCCAGAACATCATGTTCTCCGGTGCGAT
DNA 2: ATCGCACCGGAGAACATGATGTTCTGGCCACGCTA
B2: binds [2].
